As usually defined, the Kd is the concentration at which binding is half-saturated. Broadly, the koff is the rate constant with which the complex falls apart. Broadly, the kon is the rate constant with which the complex forms. A lower kon goes with slow association.

Experiment [1] concerns the target active human C1s purified from human serum (CompTech, Tyler, TX, catalog number A104) (human) (UniProt P09871). Put plainly: cell-based or functional assay.
For experiment [2] the target is unchanged. Put plainly: SPR, antibody captured via anti-human Fc, C1s in solution. (Surface plasmon resonance follows binding to a sensor surface in real time, without labels.)

active human C1s purified from human serum (CompTech, Tyler, TX, catalog number A104) (human), sequence (P09871 16-437, chain 1 of 2): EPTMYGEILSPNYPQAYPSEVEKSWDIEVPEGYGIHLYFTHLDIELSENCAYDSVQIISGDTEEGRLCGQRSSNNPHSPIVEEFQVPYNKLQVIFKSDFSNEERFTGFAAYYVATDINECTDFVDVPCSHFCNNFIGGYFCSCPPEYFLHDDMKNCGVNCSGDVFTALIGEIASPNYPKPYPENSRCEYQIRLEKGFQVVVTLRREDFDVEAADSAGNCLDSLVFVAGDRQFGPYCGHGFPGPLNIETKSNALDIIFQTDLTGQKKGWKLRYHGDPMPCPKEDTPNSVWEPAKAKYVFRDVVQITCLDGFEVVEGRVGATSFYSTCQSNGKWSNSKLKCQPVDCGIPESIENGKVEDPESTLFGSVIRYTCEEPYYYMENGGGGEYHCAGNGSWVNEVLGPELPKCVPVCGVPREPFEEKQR
active human C1s purified from human serum (CompTech, Tyler, TX, catalog number A104) (human), sequence (P09871 438-688, chain 2 of 2): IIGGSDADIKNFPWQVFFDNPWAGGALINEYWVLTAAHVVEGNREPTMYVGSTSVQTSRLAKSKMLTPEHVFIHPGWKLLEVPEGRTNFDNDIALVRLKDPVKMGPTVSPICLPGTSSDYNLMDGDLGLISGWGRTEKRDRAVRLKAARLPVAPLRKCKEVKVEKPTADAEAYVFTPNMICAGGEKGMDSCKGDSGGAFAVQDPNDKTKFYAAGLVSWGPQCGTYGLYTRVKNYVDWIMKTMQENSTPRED

B1: recombinant TNT020 (antibody, from another filing, V domains shown)
VH: QVQLVQSGAEVKKPGASVKLSCTASGFNIKDDYIHWVKQAPGQGLEWIGRIDPADGHTKYAPKFQVKVTITADTSTSTAYLELSSLRSEDTAVYYCARYGYGREVFDYWGQGTTVTVSS
VL: DIVLTQSPDSLAVSLGERATISCKASQSVDYDGDSYMNWYQQKPGQPPKILIYDASNLESGIPARFSGSGSGTDFTLTISSLEPEDFAIYYCQQSNEDPWTFGGGTKVEIKR
Take B1: in experiment [1], the IC50, inhibition of C3b deposition on sensitized hRBCs in 7.5% human serum (flow cytometry), Donor A amounted to 52.9 nM; the IC50, inhibition of C3b deposition on sensitized hRBCs in 7.5% human serum (flow cytometry), Donor B (1) turned out to be 238 nM; the IC50, inhibition of C3b deposition on sensitized hRBCs in 7.5% human serum (flow cytometry), Donor B (2) is 688 nM; the IC50, inhibition of sensitized hRBC lysis in 25% human serum, Donor 1 was 20.9 nM. Further, in experiment [1], the IC50, inhibition of sensitized hRBC lysis in 25% human serum, Donor 2 was determined as 30.7 nM and the IC50, inhibition of sensitized hRBC lysis in 25% human serum, Donor 3 was 14.6 nM. Besides, in experiment [2], the dissociation constant (Kd) worked out at 3.77 nM, the koff turned out to be 0.00134 s⁻¹ and the kon is 357000 M⁻¹ s⁻¹.

The values above are taken from patent publication US20250188188A1.
